Results taken from US20110306057A1.

Assays:
[1] = target: PP2A regulatory subunit B56δ (human (endogenous in human HEK TER cells)) (UniProt Q14738); test: anti-FLAG co-IP from HEK TER cells, immunoblot, densitometry; +++ >90%, ++ 50-90%, + <50%
[2] = target: endogenous RalA (human) (UniProt P11233); test: cell-based or functional assay
Chain of endogenous RalA (human) (P11233 1-203 limits assumed): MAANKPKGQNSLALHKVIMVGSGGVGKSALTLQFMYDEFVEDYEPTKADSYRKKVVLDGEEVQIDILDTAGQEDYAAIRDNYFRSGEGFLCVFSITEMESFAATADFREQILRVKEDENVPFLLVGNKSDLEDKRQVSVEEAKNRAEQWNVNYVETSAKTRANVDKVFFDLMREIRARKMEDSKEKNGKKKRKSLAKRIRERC

Chain of PP2A regulatory subunit B56δ (human (endogenous in human HEK TER cells)) (Q14738 whole entry, stated change not applied): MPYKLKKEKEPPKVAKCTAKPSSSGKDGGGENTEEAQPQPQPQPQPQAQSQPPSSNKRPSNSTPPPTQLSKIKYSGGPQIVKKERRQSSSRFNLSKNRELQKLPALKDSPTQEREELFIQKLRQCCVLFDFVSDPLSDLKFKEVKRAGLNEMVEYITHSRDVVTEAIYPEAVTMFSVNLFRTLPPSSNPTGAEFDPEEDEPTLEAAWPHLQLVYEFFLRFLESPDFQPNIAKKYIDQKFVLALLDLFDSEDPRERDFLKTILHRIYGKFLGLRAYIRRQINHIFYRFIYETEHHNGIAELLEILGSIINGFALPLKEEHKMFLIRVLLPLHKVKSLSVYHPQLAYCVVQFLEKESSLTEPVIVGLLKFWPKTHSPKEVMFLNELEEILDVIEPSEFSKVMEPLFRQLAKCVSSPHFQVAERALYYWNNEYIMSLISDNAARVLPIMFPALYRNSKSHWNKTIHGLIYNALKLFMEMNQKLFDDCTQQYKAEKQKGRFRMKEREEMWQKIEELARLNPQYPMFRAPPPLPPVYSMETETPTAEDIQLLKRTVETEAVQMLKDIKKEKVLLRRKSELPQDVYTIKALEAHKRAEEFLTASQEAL
Chain of wild type (WT) FLAG epitope-tagged version of PP2A Aβ (P30154 whole entry): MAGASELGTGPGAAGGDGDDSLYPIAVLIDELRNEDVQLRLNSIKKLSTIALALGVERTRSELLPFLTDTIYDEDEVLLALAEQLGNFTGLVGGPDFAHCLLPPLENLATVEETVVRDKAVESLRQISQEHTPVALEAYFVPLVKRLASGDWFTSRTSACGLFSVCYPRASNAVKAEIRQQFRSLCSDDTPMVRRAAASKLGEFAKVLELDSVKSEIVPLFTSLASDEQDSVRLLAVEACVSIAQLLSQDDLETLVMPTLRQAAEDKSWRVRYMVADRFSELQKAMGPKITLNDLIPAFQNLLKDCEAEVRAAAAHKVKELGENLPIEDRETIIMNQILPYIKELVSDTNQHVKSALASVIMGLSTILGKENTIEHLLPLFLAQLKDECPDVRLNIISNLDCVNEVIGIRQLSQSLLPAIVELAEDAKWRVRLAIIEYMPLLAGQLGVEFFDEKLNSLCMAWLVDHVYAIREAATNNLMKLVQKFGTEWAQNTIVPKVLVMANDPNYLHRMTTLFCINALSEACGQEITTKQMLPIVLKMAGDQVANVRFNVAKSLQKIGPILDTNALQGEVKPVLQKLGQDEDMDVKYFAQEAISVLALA
Chain of cancer-derived FLAG-tagged PP2A Aβ mutant G8R (P30154 other isoform, or with tags, fused parts or gaps limits assumed, stated change not applied): as the sequence (P30154 whole entry) above, with G8R counted along it

| binding level (percent, co-immunoprecipitation densitometry) [1] [%] | GTP-bound RalA levels (RalA activation assay, RalBP1 agarose pull-down) [2] [fold] | Substance |
| --- | --- | --- |
| > 90 |  | cancer-derived FLAG-tagged PP2A Aβ mutant D504G (from UniProt P30154 1-601) |
| 50 to 90 |  | cancer-derived FLAG-tagged PP2A Aβ mutant P65S (from UniProt P30154 1-601) |

Continued, substance first:

| Substance | binding level (percent, co-immunoprecipitation densitometry) [1] [%] | GTP-bound RalA levels (RalA activation assay, RalBP1 agarose pull-down) [2] [fold] |
| --- | --- | --- |
| cancer-derived FLAG-tagged PP2A Aβ mutant G8R (from UniProt P30154 1-601) | < 50 |  |
| cancer-derived FLAG-tagged PP2A Aβ mutant K343E (from UniProt P30154 1-601) | 50 to 90 |  |
| endogenous PP2A Aβ (from UniProt P30154 2-601) |  | 4.5 |
| wild type (WT) FLAG epitope-tagged version of PP2A Aβ (from UniProt P30154 1-601) | > 90 |  |
